Assay results as given in patent US7304146B2, “Fluorogenic kinase assays and substrates” (Applera Corporation, priority 2004, dated 2007).
Where no end group is shown, it is not given here. [ ]: non-standard residue; d: D form. K(dye 2) = not defined here; K(tet) = not defined here; Orn = NCCC[C@H](N)C(=O)O; C12 = C12 group (lipid); C11 = C11 lipid

Assays:
[1] = side chain (imidazole of histidine; cysteine); cited from earlier work
[2] = biological target: protein kinase Akt3/PKBγ (Homo sapiens, UniProt Q9Y243); assay: Fluorogenic kinase assay with Akt3/PKBγ, rate of reaction, two vs one hydrophobic moiety; type: biochemical; conditions: compared with one-hydrophobic-moiety substrate C15OOOK(dye2)RPRTSSF-NH2; substrates 8 μM, Akt3/PKBγ 6 nM, ATP 100 μM (FIG. 5)
Chain of protein kinase Akt3/PKBγ (Q9Y243 whole entry): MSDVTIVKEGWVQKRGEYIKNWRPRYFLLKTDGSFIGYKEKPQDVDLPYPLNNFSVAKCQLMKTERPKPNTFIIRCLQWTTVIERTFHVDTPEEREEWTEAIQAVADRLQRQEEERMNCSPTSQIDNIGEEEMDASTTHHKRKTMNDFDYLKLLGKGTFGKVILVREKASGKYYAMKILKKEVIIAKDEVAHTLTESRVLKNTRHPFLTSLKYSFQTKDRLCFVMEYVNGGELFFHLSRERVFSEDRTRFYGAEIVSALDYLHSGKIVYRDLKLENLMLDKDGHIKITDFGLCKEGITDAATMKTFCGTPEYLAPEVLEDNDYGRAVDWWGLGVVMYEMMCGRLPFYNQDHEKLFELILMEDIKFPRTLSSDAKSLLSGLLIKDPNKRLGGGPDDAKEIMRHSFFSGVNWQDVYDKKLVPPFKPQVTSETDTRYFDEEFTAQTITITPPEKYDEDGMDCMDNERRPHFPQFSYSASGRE
Experimental: Tet is the fluorescein dye 2′,7′,4,7-tetachloro-5-carboxy fluorescein.
(§1) Kinase assays were performed using Corning 384-well, black, non-binding surface (NBS), microwell plates. Fluorescence was read in real time using a […] Gemini XS plate reader, with excitation and emission set at 500 and 550 respectively. The plate was read every minute for one hour at ambient temperature
Concentrations of dye-labeled peptides were determined by dilution of the purified peptides into dimethylformamide (200 μL) with 1 M NaOH (5 μL) and measuring the absorbance of either 5-carboxy-2′,7′-dipyridyl-sulfonefluorescein (i.e. dye2) at its absorbance maximum (548 nm) or 2′,7′,4,7-tetachloro-5-carboxy fluorescein (i.e. 2′,7′-dichloro-5-carboxy-4,7-dichlorofluorescein or “tet”) at its absorbance maximum (541 nm). The extinction coefficient of both dyes was assumed to be 80,000 cm^−1M^−1.

[3] = biological target: protein kinase p38βII (Homo sapiens, UniProt Q15759); assay: Fluorogenic kinase assay with p38βII, rates at varying ATP fitted to Michaelis-Menton equation; type: biochemical; conditions: p38bII 14 nM; 20 mM Tris pH 7.4, MgCl2 5 mM, DTT 5 mM; read 1 hour; read-out: apparent Km of ATP
Chain of protein kinase p38βII (Q15759 whole entry): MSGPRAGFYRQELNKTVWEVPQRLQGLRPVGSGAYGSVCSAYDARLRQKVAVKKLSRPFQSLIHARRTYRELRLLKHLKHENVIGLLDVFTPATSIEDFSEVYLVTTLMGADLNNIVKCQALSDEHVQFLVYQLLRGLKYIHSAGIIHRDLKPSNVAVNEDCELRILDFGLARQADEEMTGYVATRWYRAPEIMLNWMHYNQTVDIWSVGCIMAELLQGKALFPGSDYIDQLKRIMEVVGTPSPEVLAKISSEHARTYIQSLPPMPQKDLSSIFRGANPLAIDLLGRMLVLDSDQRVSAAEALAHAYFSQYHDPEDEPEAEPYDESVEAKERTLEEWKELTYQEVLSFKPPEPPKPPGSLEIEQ
Excerpt: A comparison of the rates of reaction for a kinase substrate comprising two hydrophobic moieties (i.e. C12OOK(dye 2)RRIPLSPOOK(C12)NH2, (peptide disclosed as SEQ ID NO: 20) used at a concentration of 2 μm and referred to herein as compound 2) versus a kinase substrate comprising a single hydrophobic moiety (i.e.C16OOK(dye 2)[…]2, (peptide disclosed as SEQ ID NO: 20) used at a concentration of 4 μm; and referred to herein as compound 4) for several concentrations of ATP (0, 5, 10, 20, 50, 100, 200, and 500 μM) is shown in FIGS. 4A and 4B. […] The rates of the reaction were fitted to the Michaelis-Menton equation. […]
as §1
Concentrations of dye-labeled peptides were determined by dilution of the purified peptides into dimethylformamide (200 μL) with 1 M NaOH (5 μL) and measuring the absorbance of either 5-carboxy-2′,7′-dipyridyl-sulfonefluorescein (i.e. dye2) at its absorbance maximum (548 nm) or 2′,7′,4,7-tetachloro-5-carboxy fluorescein (i.e. 2′,7′-dichloro-5-carboxy-4,7-dichlorofluorescein or “tet”) at its absorbance maximum (541 nm). […]

Question: Which pK [1] does the source give for `N[C@@H](Cc1c[nH]cn1)C(=O)O` [Histidine (H), Histidine] here?
Answer: about 7

Question: For “C11OOK(tet)ArgProArgThrSerSerPheOOK(C11)NH2 ({C11-Orn-Orn-K(tet)}-RPRTSSF[Orn][Orn]-{K(C11)-NH2}; not fully specified; printed as C11OOK(tet)ArgProArgThrSerSerPheOOK(C11)NH2; reading uncertain) [compound 3, kinase substrate for Akt3/PKBγ with two C11 hydrophobic moieties and tet dye]”, which “signal to noise ratio” value [2] is on record?
Answer: improved signal to noise ratio

Question: Which Km [3] does the source give for “C12OOK(dye 2)ArgArgIleProLeuSerProOOK(C12)NH2 ({C12-Orn-Orn-K(dye 2)}-RRIPLSP[Orn][Orn]-{K(C12)-NH2}; not fully specified; printed as C12OOK(dye 2)ArgArgIleProLeuSerProOOK(C12)NH2; reading uncertain) [compound 2, kinase substrate for p38βII with two C12 hydrophobic moieties and Dye 2]” here?
Answer: 90 µM

Question: With “C16OOK(dye 2)RRIPLSPNH2 (RRIPLSP-NH2; not fully specified (N-terminus); printed as C16OOK(dye 2)RRIPLSPNH2) [compound 4, comparison kinase substrate with a single hydrophobic moiety]” as the compound, how does the Km [3] read?
Answer: > 200 µM
